For data set [1], the system named is MS2 coat protein. Nature of the data set: apparent KD of MS2 coat protein, switch ON state; designed switch direction (-1 OFF switch, 1 ON switch): -1; higher = weaker reporter binding. Conditions: FMN input: 0 or 200 uM; Eterna round: R93 (includes R88 designs). In a few lines:
(§1)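 Binding of SNAP-549-labelled MS2 coat protein was measured on designed RNA switches transcribed on-chip from Illumina sequencing clusters. The protein rose in twofold steps from 0.7 or 1.5 nM to 3 µM, with 0.8–1.5 h per step early on and 10–20 min per step later, in 100 mM Tris-HCl pH 7.5, 80 mM KCl, 4 mM MgCl2, without or with constant ligand. Each design's apparent KD is the median of fits to its normalised cluster binding curves.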

For data set [2], the system named is MS2 coat protein. Kind of data set: apparent KD of MS2 coat protein, switch OFF state (with FMN for OFF switches, without FMN for ON switches); designed switch direction (-1 OFF switch, 1 ON switch): -1; higher = weaker reporter binding. Conditions: FMN input: 0 or 200 uM; Eterna round: R93 (includes R88 designs). In a few lines:
as §1

For “AAAAAGAGAGGAUAUACAUGAGGAUCACCCAUGUGACAUUAAAUAAAUAAAAUAAAAUGUAGAAGGCUCAAAAA [65%, Moding Exclusion3-cac2, 22]”, the “apparent KD of MS2 coat protein” value was determined as 38.6 nM with MS2 coat protein [1] and 171 nM in the data set with MS2 coat protein [2].
On the same counts, the results for “AAAAAGCAAGGAUAUACAUGAGGAUCACCCAUGUGAAAAAAAACAAUAAGAAGAAAAAGUAGAAGGUGCAAAAA [Ex 3 Tesla 1]” are 24 nM and 18.8 nM.
For “AAAAAGCUAGGAUAUACAUGAAAAAAAAAAAAGUAAAAAAAACAUGAGGAUCACCCAUGUAGAAGGAGCAAAAA [water's exclusion 2 last]”, in that order: 40.4 nM and 37 nM.
Turning to “AAAAAGGCAGGAUAUACAAAAAAAUUUUUAAAAAAAAAAAAACAUGAGGAUCACCCAUGUAGAAGGGCCAAAAA [Ex 2.1]”, the “apparent KD of MS2 coat protein” value in the data set with MS2 coat protein [1] worked out at 52 nM; in the data set with MS2 coat protein [2], 43.3 nM.
For “AAAAAGGCAGGAUAUACAUGAGGAUCACCCAUGUAAAGAAAGAAAGAGGUGAAAGAAAGUAGAAGGGCCAAAAA [Ex3 sub 2]”, the “apparent KD of MS2 coat protein” value with MS2 coat protein [1] was found to be 92.9 nM; in the data set with MS2 coat protein [2] it was 72 nM.
Consider “AAAAAGGCAGGAUAUACGAACAUGUCGAAAGACGUGAAGGGACAUGAGGAUCACCCAUGUAGAAGGGUCAAGAA [Mat - Exclusion 2 - JL mod - D76]”, for which the “apparent KD of MS2 coat protein” value with MS2 coat protein [1] was determined as 90.8 nM; in the data set on MS2 coat protein [2], 91.9 nM.
On the same counts, the results for “AAAAAGGCAGGAUAUACGUACAUGUCGAAAGACGUGAAGGGACAUGAGGAUCACCCAUGUAGAAGGGUCAAGAA [Mat - Exclusion 2 - JL mod - D77]” are 111 nM and 93.4 nM.
For “AAAAAGGCAGGAUAUGCAUACACACGAAAAAAAACGCUGGGACAUGAGGAUCACCCAUGUAGAAGGGCCAAAAA [Dora Explored 10 - Jieux - Exclusion 2]”, in that order: 57.2 nM and 38.6 nM.
On the same counts, the results for “AAAAAGGGAGGAUAUACAUGAGGAUCACCCAUGUAACAGACGAAAAAGAGUCUGAAAUGUAGAAGGCCCAAAAA [65%, Moding Exclusion3-cac2, 5]” are 24.6 nM and 48.4 nM.
Turning to “AAAAAGGUAGGAUAUACAUGAGGAUCACCCAUGUAAAAAAAAACAGAAAAAAACAAAUGUAGAAGGGCCAAAAA [Ex3 Malc#5]”, the “apparent KD of MS2 coat protein” value was found to be 25.9 nM in the data set with MS2 coat protein [1] and 35.6 nM with MS2 coat protein [2].
On the same counts, the results for “AAAAAGUCAGGAUAUACGUAAGUGCGAAAGCACAAAUGGAAACAUGAGGAUCACCCAUGUAGAAGGGACAAGAA [JL In the Red 02 (Mod)]” are 36.7 nM and 23.6 nM.
Regarding “AAAAAGUCAGGAUAUAGAAAAGGUCACGAAAGUGACAAAGGCUAGAAGGGACAUGAGGAUCACCCAUGUAAAAA [Mat - Mod of Eli]”, the “apparent KD of MS2 coat protein” value in the data set with MS2 coat protein [1] was 53.5 nM; in the data set on MS2 coat protein [2], 28.8 nM.
“AAAAAGUCAGGAUAUGUACGAAAAAAUAAAAAAAUAAAAGUACAGAAGGGACAUGAGGAUCACCCAUGUCAGGG [EX4 393: Minimal 5]”: the entries for the “apparent KD of MS2 coat protein” value with MS2 coat protein [1] and in the data set with MS2 coat protein [2] were 67.5 nM and 118 nM, respectively.
With “AAAAAGUCAGGAUAUGUGGAAAAAAUAAAAAAAAUAAAAACACAGAAGGGACAUGAGGAUCACCCAUGUAAAAA [Ex 4 May 19]”, the “apparent KD of MS2 coat protein” value in the data set with MS2 coat protein [1] amounted to 71.7 nM; in the data set on MS2 coat protein [2], 47.2 nM.
For “AAAAAGUGAGGAUAUACAUGAGGAUCACCCAUGUGUAUAAAAAAAUACACAAAAGAAAGUAGAAGGCACUAAAA [Ex 3 Hot]”, in that order: 21.1 nM and 58.6 nM.
In the case of “AAAAAGUGAGGAUAUACAUGAGGAUCACCCAUGUUAAAAAAGGAAAAAAAAAAAAAAUGUAGAAGGCGCAAAAA [water's exclusion 3]”, the “apparent KD of MS2 coat protein” value in the data set on MS2 coat protein [1] was determined as 36.9 nM; in the data set on MS2 coat protein [2], 36 nM.

Source of the values: the supplement of paper PMC9170038.
